We go through two compounds from US20230365636A1, “BIOORTHOGONAL REPORTER GENE SYSTEM” (priority 2020, published 2023).

Assay [1] has as its target T1, reporter protein DTPA-V5-TMD-mRuby3 (DTPA-R) on Jurkat cells (Homo sapiens, UniProt P80188, C107S/D67E/D97E/I100T/I61A/I75T/K154S/K66P/K70L/K95M/L127F/L56R/L62P/L90R/M71L/N85D/P68L/Q48H/Q69L/R101M/R63P/S119N/S147Q/S88A/T156S/T74Q/V53Q/W99L/Y158L/Y72T).
T1 construct: to Jurkat cells expressing the reporter protein DTPA-V5-TMD-mRuby3 was assessed; expressed in transfected cells; host or cells: Jurkat (human T-cell line), stably modified
The assay can be described thus: Competition radioligand binding assay (Y-90 radioligand vs Y-89 charged chelator) on Jurkat cells. Conditions: competition of fixed amount of Y-90 radioligand by dilution series of Y-89 charged chelator, FIG. 14A. The protocol:
The binding of different radioligands to cells that express the DTPA-R or Colchi-R was shown in binding assays. To this end, Jurkat or PC3 cells that stably express the respective reporter protein of the invention were cultivated, counted and a defined concentration was incubated together with the radioligand in PBS with 2% BSA for 1 h at 37° C. Subsequently, the cells were washed twice with PBS with 2% BSA and finally in the cell-bound fraction and the supernatant fraction the respective radioactivity was detected. (A) NH2-Bn-CHX-A″-DTPA⋅Y-90 binding was competed with a non-radioactive competitor NH2-Bn-CHX-A″-DTPA⋅Y-89. […] (C) A comparative binding assay with ^18F-Py-Ahx-DTPA and ^18F-Py-Glu-Glu-PEG(4)-Colchicine to Jurkat cells expressing either DTPA-R or Colchi-R proving the orthogonal functionality of the two reporter protein & reporter probe pairs.
For the sensitive and specific detection of cells that are labeled with the reporter gene of the invention, the binding between the Anticalin binding protein and the radioligand is of utmost importance. For this reason, the binding of different radioligands to cells that were stably modified with the reporter genes was studies in vitro (FIG. 14). At first, the binding of the ligand domain for the DTPA-R (NH2-CHX-A″-DTPA) to Jurkat cells expressing the reporter protein DTPA-V5-TMD-mRuby3 was assessed. […]

In the next assay the target is DTPA-miRFP720. The assay can be described thus: Flow cytometry of lentivirally transduced Jurkat cells stained with Alexa Fluor 488-conjugated SV5-PK1 against the extracellular V5-tag. Target printed as DTPA-miRFP720. A general note: Flow cytometry measures light scatter and fluorescence of single cells or particles in a stream.
The target in assay [2] is CL31d-V5-CD4TMD (human). The assay can be described thus: flow cytometry, SV5-PK1-AlexaFluor488 on transduced Jurkat cells; the filing reads it as surface expression level.
The target in assay [3] is scFv(muC825)-V5-CD4TMD. The assay is described as above.
Assay [4] deals with scFv(huC825)-V5-CD4TMD. The assay is described as above.
For assay [5], the target named is DTPA-V5-TMD-mRuby3 (human). The assay can be described thus: Flow cytometry of lentivirally transduced Jurkat cells stained with Alexa Fluor 488-conjugated SV5-PK1 against the extracellular V5-tag. Target printed as DTPA-mRuby3.
Assay [6] deals with scFv(huC825)-V5-CD4TMD. The assay can be described thus: Flow cytometry of retrovirally transduced Jurkat cells after FACS sorting of the 10% highest expressing cells. Staining with AlexaFluor488-conjugated SV5-PK1. Target printed as huC825-V5-TMD.
For assay [7], the target named is scFv(muC825)-V5-CD4TMD. The assay can be described thus: Flow cytometry of retrovirally transduced Jurkat cells after FACS sorting of the 10% highest expressing cells. Staining with AlexaFluor488-conjugated SV5-PK1. Target printed as muC825-V5-TMD.
The target in assay [8] is DTPA-V5-TMD-mRuby3 (human). The assay can be described thus: Magnetic-activated cell separation with SV5-PK1 and anti-mouse IgG microbeads, read by flow cytometry for mRuby3. Cells: Jurkat DTPA-V5-TMD-mRuby3.
The target in assay [9] is CL31d-V5-CD4TMD (human). The assay can be described thus: Quantification of the SV5-PK1 western blot signals with LI-COR software. The y axis is fold change [relative]. For orientation: In western blotting, separated proteins are transferred to a membrane and probed.
The target in the next assay is Colchi-V5-TMD (human). The assay is described as above.
Assay [10] deals with Colchi-V5-TMD-mRuby3 (human). The assay can be described thus: Magnetic-activated cell separation with SV5-PK1 and anti-mouse IgG microbeads, read by flow cytometry for mRuby3. Cells: Jurkat Colchi-V5-TMD-mRuby3.
The target of assay [11] is CL31d-V5-CD4TMD (human). The assay can be described thus: Flow cytometry of retrovirally transduced Jurkat cells after FACS sorting of the 10% highest expressing cells. Staining with AlexaFluor488-conjugated SV5-PK1. Target printed as CL31d-V5-TMD.
Assay [12] concerns the target CL31d-V5-CD4TMD (human). The assay can be described thus: Flow cytometry of lentivirally transduced Jurkat cells stained with Alexa Fluor 488-conjugated SV5-PK1 against the extracellular V5-tag. Target printed as DTPA-TMD.
For another assay, the target named is DTPA-miRFP703. Description: Flow cytometry of lentivirally transduced Jurkat cells stained with Alexa Fluor 488-conjugated SV5-PK1 against the extracellular V5-tag. Target printed as DTPA-miRFP703.

CL31d-V5-CD4TMD (human), sequence (chain, as listed by the source): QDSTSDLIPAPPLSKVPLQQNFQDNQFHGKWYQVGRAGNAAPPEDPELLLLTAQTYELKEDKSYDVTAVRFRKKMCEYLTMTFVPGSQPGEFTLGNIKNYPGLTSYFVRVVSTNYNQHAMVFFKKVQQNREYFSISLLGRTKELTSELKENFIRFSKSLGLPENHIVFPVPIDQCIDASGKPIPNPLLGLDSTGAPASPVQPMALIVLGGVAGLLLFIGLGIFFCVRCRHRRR
T1 sequence (P80188 21-197 with the stated changes): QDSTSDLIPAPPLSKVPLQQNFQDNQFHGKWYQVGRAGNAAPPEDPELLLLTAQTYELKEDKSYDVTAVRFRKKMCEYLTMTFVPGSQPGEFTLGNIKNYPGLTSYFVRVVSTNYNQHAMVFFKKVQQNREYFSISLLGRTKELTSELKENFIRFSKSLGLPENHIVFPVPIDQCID

As a reminder, the IC50 is the concentration needed to halve the response being measured. Read a high IC50 as lower potency. `Nc1ccc(C[C@H](CN(CC(=O)O)[C@H]2CCCC[C@@H]2N(CC(=O)O)CC(=O)O)N(CC(=O)O)CC(=O)O)cc1` [NH2-CHX-A″-DTPA, [(R)-2-amino-3-(4-aminophenyl)propyl]-trans-(S,S)-cyclohexane-1,2-diaminepentaacetic acid] returned an IC50 in assay [1] of 1.4 nM.

monoclonal anti-V5-antibody SV5-PK1: the MFI was 2550 in the assay with DTPA-miRFP720; 1740 in [5]; 6200 with scFv(huC825)-V5-CD4TMD [6]; 7400 with scFv(muC825)-V5-CD4TMD [7]; 20600 with CL31d-V5-CD4TMD (human) [11]; 18500 in the assay with CL31d-V5-CD4TMD (human) [12]. The same compound came in with an MFI in the assay with DTPA-miRFP703 of 2330. In addition, the results for the Median Fluorescence Intensity (MFI) with CL31d-V5-CD4TMD (human) [2], with scFv(muC825)-V5-CD4TMD [3] and with scFv(huC825)-V5-CD4TMD [4] were 6560, 1130 and 1080, respectively. For the same compound, the % mRuby3-positive cells in the MACS eluate in [8] was 98.5%; in assay [10], 99%. In addition, the % mRuby3-positive cells in the MACS flow through in assay [8] stood at 0.8%; in assay [10], 1.5%. The fold increase of the quantified V5 band signal, lane 4 over lane 2 (DTPA-V5-TMD-mRuby3) with CL31d-V5-CD4TMD (human) [9] amounted to 3.7 fold. The compound also registered a fold increase of the quantified V5 band signal, lane 5 over lane 3 (Colchi-V5-TMD-mRuby3) with Colchi-V5-TMD (human) of 5.4 fold.
